Data published in PMC3265435, “More than just a metabolic regulator - elucidation and validation of new targets of PdhR in Escherichia coli”.

Assays:
PdhR (his-tagged) [1] = target: T1, PdhR (his-tagged) (Escherichia coli, UniProt P0ACL9 1-254); experiment: EMSA; 0.1 pmol DNA, 54 pmol PdhR; EMSA as in ref 7; 0.1 pmol of each DNA fragment with 54 pmol PdhR; buffer, salt, pH and temperature not given; details: protein: recombinant, tags: His, chain copies: 2, label: 5'DY682 (strand 1), 5'DY782 (strand 2)
PdhR (his-tagged) [2] = target: T1, PdhR (his-tagged); experiment: EMSA; 0.1 pmol DNA, 54 pmol PdhR; same binding activity as pdhR site; EMSA as in ref 7; 0.1 pmol of each DNA fragment with 54 pmol PdhR; buffer, salt, pH and temperature not given; details: protein: recombinant; tags: His; chain copies: 2; label: 5'DY682 (strand 1); 5'DY782 (strand 2); blunt

T1 sequence (P0ACL9 whole entry, the tested form may be a part): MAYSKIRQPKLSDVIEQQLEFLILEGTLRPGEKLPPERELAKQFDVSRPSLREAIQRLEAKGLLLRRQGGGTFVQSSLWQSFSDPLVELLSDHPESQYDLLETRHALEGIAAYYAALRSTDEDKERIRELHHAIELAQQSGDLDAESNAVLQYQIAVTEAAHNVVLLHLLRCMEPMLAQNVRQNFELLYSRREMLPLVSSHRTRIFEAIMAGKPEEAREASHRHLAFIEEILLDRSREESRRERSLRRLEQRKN

B1: MetBop (dsDNA)
DNA 1: AACGGCTATTTGGGATTTGCTCAATCTATACGCAAAGAAGTTT
DNA 2: AAACTTCTTTGCGTATAGATTGAGCAAATCCCAAATAGCCGTT
B1: no binding (PdhR (his-tagged) [1]; blunt).

B2: GlcDop (dsDNA)
DNA 1: CTATCTCTTTAGCTACCGGTCAGACCATTTTTTTTCCAGCTCT
DNA 2: AGAGCTGGAAAAAAAATGGTCTGACCGGTAGCTAAAGAGATAG
B2: binds (PdhR (his-tagged) [2]).

B3: PdhRop (dsDNA)
DNA 1: GCCGAAGTCAATTGGTCTTACCAATTTCATGTCTGTG
DNA 2: CACAGACATGAAATTGGAAGACCAATTGACTTCGGC
B3: binds (PdhR (his-tagged) [1]; printed strands not exact complements: S23 lacks one T opposite an A of S22 (37/36 nt; possible misprint)).
